As usually defined, the Kd is the concentration at which binding is half-saturated. Low values mean higher affinity, high ones lower affinity.

Experiment [1] has as its target RSV postfusion F (postF, F deltaFP) (Respiratory syncytial virus). Description: BLI, IgG on sensor, 100 nM antigen.
Experiment [2] deals with RSV prefusion F (preF), DS-Cav1 (Respiratory Syncytial Virus). Description: BLI, IgG on anti-human IgG sensor, 100 nM antigen. Background: BLI is a label-free optical method that tracks binding on a fibre tip over time.
The target of experiment [3] is Respiratory Syncytial Virus fusion glycoprotein (RSV F) on RSV-A2 virus (Respiratory Syncytial Virus subtype A (RSV-A2)). In words: cell-based or functional assay.
For experiment [4], the target named is RSV prefusion F (preF, DS-Cav1) (Respiratory syncytial virus). In words: BLI, IgG on sensor, 100 nM antigen.

B1: ADI-41244 (antibody, V domains shown)
VH: QVTLKESGGGLIQPGGSLRLSCAVSGFTVSSKYMSWVRQAPGKGLEWVSVIYGGGSTYYTDSVKGRFTISRDNSNNTLYLQMNSLRAEDTAIYYCAREARSYNYDYVGNDAFDIWGQGTTVTVSS
VL: DIVLTQTPDSLAVSLGERATINCKSSQSVLNNFNNKNYLAWYQQKPGQPPKLLIYWASTRESGVPDRFSGSGSGTDFTLTITSLQAEDVAIYYCQQYYRTPPYTFGQGTKVDIK
Molecule B1 returned a Kd in experiment [1] of 843 pM.

B2: ADI-41234 (antibody, V domains shown)
VH: QVQLVQSGGGVVQPGRSLRLSCAASGFTVSSYAIHWVRQSAGKGLEWVAVEGRFTISRDNSKNTLYLQMNSLRAEDTAVYYCARLSEALVEPAAHTQYKYHYGLDVWGQGTTVTVSS
VL: EIVLTQSPLSLPVTPGEPASISCKSSQSLLDSNGYNYLDWYLQKPGQSPQLLIYLVSNRASGVPDRFSGSGSGTDFTLKISRVEAEDVGIYYCMQALQTPWTFGQGTKVEIK
For B2, the Kd in experiment [2] worked out at 1460 pM. The molecule also registered a Neutralization IC50 (RSV subtype A) in experiment [3] of 0.1 µg/mL.

B3: ADI-41250 (antibody, V domains shown)
VH: QVQLQQWGAGLLKPSETLSLTCAVSGESLTGYFWSWIRQPPGKGLEWIGEVSHSGSTNYNPSLKSRVTMSVDTSKTQFSLKLNSVTAADTAVYYCARGYDYWSGTARYFDYWGQGILVTVSS
VL: QPVLTQPASVSGSPGQSITISCTGTSSDVGGYNYVSWYQQHPGKAPKLMIYDVSNRPSGVSSRFSGSKSGNTASLTISGLQAEDEGDYYCSSYRSSTTSRVFGGGTKVTVL
With B3, the results for the Kd in experiment [4] and in experiment [1] were 731 pM and 504 pM, respectively.

B4: ADI-41210 (antibody, V domains shown)
VH: QVQLVQSGAEVKKPGASVKVSCKASGYTFNNYGISWVRQAPGQGLEWMGWISAYNGDIKYAQKFQGRVTVTTDTSTSTAYMELRSLRSDDTAVYYCARDTPVGGGTQTFDYWGQGTLVTVSS
VL: ETTLTQSPLSLPVTLGQPASISCRSSQSLVHSNGNTYLNWFQQRPGQSPRRLIYTVSNRDSGVPDRFSGSGSGTDFTLKISRVEAEDVGVYYCMQATHRPGTFGQGTKVEIK
In experiment [2], B4 had a Kd of 470 pM. This molecule displayed a Neutralization IC50 (RSV subtype A) in experiment [3] of 0.1 µg/mL.

B5: ADI-41206 (antibody, V domains shown)
VH: EVQLLESGGGLVKPGGSLRLSCAGSGFSFSSYSMNWVRQAPEKGLEWVSSISASSSFINYADSVKGRFIISRDNAKNSLFLQMDSLRAEDTAVYYCARDGVHPGGYIFGGYIDSWGQGTLVTVSS
VL: QSVLTQPPSVSGAPGQRVTISCTGSSSNIGAGYDVHWFRQLPGTAPKLLIYGNNNRPSGVPDRFSGSKSGSSASLIITGLQAQDEATYYCQSYDSSLSGYVFGTGTKLTVL
Consider B5, for which, in experiment [2], the Kd worked out at 409 pM. Moreover, the Neutralization IC50 (RSV subtype A) in experiment [3] came to 0.07 µg/mL.

B6: ADI-41233 (antibody, V domains shown)
VH: EVQLLESGGGLVKPGGSLRLSCAASGFIFRDYYMIWIRQAPGKGLEWVSYISSSSTYTNNADSVKGRFTISRDNAKNSLYLQMNSLRAEDTAVYYCARLFASRSDGAFDIWGQGTTVTVSS
VL: QSVLTQPPSVSGAPGQRVTISCTGSSSNIGAGYDVHWYQQLPETAPKLLIYDNNNRPSGVPDRFSGSKSGTSASLAITGLQAEDEADYYCQSYDSSLSGYVFGTGTTVTVL
In experiment [2], B6 showed a Kd of 1060 pM. Besides, the Neutralization IC50 (RSV subtype A) in experiment [3] turned out to be 0.15 µg/mL.

B7: ADI-41216 (antibody, V domains shown)
VH: EVQLVESGGGLVKPGESLRLSCAASGFRFSDHYMSWIRQAPGKGLEWISYISSSSSYIHYADSVTGRFTISRDNAKNSMYLQMNSLRAEDTAVYYCAREIGRSYYMDVWGKGTTVTVSS
VL: QSALIQPPSVSGAPGQRVTISCTGSSSNIGAGYDVHWYQQLPGTAPKLLIYGNNNRPSGVPDRFSASKSGISASLAITGVQTEDEADYYCQSYDRSLSEFYVFGSGTKVTVL
For the molecule B7, the Kd in experiment [2] was found to be 903 pM. Moreover, the Neutralization IC50 (RSV subtype A) in experiment [3] is 0.19 µg/mL.

B8: ADI-41241 (antibody, V domains shown)
VH: QVQLVQSGAEVKKPGASVQVSCKASGYTFTGDYMHWVRQAPGQGLEWMGRINPNSGGTNYAQKFQGRVTMTRDTSISTAYMELSRLRSDDTAVYYCARAAAEYSSSSPTSYYYMDVWGKGTTVTVSS
VL: EIQMTQSPSSLSASVGDRVTITCRASQNIYSFLNWYQQKPGKAPKLLIYAASSLQSGVPSRFSGSGSATDFTLTISSLQPEDFATYYCQQSYSPPQITFGQGTKVDIK
For the molecule B8, the Kd in experiment [4] was 3840 pM; in experiment [1] it was 927 pM.

B9: ADI-41264 (antibody, V domains shown)
VH: EVQLVESGGGLVKPGGSLRLSCAASGFTFSNTWMSWVRQAPGKGLEWVGHIKSKTDGGTTDYAAPVKGRFTISRDDSKSILNLHLNSLKTEDSAVYYCAALPPISGWYYTPGFWGQGTLVTVSS
VL: SYELTQPPSMSVSPGQTARITCFGDAVPKKYVYWYQQKSGQAPVMVIYDDRRRPSGIPERFSGSSSGARATLTISGAQVEDEADYYCYSTDGSGNPSFGGGTKLTVL
On to B9, for which the Kd in experiment [1] is 484 pM.

B10: ADI-41217 (antibody, V domains shown)
VH: EVQLVQSGGGLVKPGGSLRLSCVASGFTFSSYSMNWVRQAPGKGLEWVSSISASSSYIDYADSVKGRFTISRDNDKKSLYLQMSSLRAEDTAVYYCAREDYDSLTGYYSPKRFDPWGQGTLVTVSS
VL: QSVLTQPPSLSGAPGQRVTISCTGSSSNIGAGYDVHWYQQLPGTAPKLLIYGNNNRPSGVPDRFSGSKSGTSASLAITGLQAEDEADYYCQSYDRSLSVVFGGGTKVTVL
On to B10, for which, in experiment [2], the Kd amounted to 489 pM. Also, the Neutralization IC50 (RSV subtype A) in experiment [3] was 0.04 µg/mL.

B11: ADI-41235 (antibody, V domains shown)
VH: QVQLQQWGAGLLKPSETLSLTCGVYGESFSGHYWSWIRQPPGKGLEWMGEIHHSGTTNYNPSLKSRVTISVDTSKNQFSLKLNSVTAADTAVYYCARNPAEDILTGYSPPFHYYYMDVWGKGTTVTVSS
VL: QSVLTQPPSVSGAPGQRVTISCTGSSSNIGAGYDVHWYQQIPGTAPKLLIHSNNNRPSGVPDRFSGSKSGTSASLAITGLQAEDEADYYCQSYDSSLSVVFGGGTKLTVL
Regarding B11, the values for the Kd in experiment [4] and in experiment [1] were 4720 pM and 3240 pM, respectively.

B12: ADI-41236 (antibody, V domains shown)
VH: QVQLVQSGGGLVKPGGSLRLSCTASGFTFSDYYMDWIRQAPGKGLEWVSSISSSSTYTKYADSVKGRFTISRDNAKNSLFLQMNSLRAEDTAVYYCVRNLGPYCSSTSCFVFDYWGQGTLVTVSS
VL: QSVLTQPPSVSGAPGQRVSISCTGSSSNIGAGYEVHWYKQVPGTAPRLLMYDNTNRPSGVPDRVSGSKSGTSASLAITGLQAEDEADYYCQSYDNSLNKSVFGGGTKVTVL
Molecule B12 gave a Kd in experiment [1] of 61300 pM.

B13: ADI-41240 (antibody, V domains shown)
VH: QVQLQQWGAGLLKPSETLSLICDVYGGSFSDYYWSWIRQSPGKGLEWIGEINHSGSTSFHPSLKSRISISIDTSNNQFSLNLSSMTAADTAVYYCARGTLRGYFDYWGQGTLVTVSS
VL: EIVLTQSPSTLSAFVGDRVTITCRASQSISRWLAWYQQKPGKAPNLLISEASSLESGVPSRFSGSGSGTEFTLTISSLQPDDLGTYYCQQYNGYLWTFGQGTKVEIK
Consider B13, for which the Kd in experiment [4] was found to be 2150 pM; in experiment [1] it was 1200 pM.

B14: ADI-41248 (antibody, V domains shown)
VH: QVQLVQSGGGVVQPGRSLRLSCAASGFTFSSYSMHWVRQAPGKGLEWMAVCWYDGSNIYYADSVKGRFTISRDNSKNTVYLQMNSLRAEDTAVYYCARDDRYCSGGTCLSAFDIWGQGTMVTVSS
VL: ETTLTQSPSSLSASVGDRVTITCRASQSISSYLNWYQQKPGRAPKLLIYTTSSLQSGVSSRFSGSGSGTDFTLTINSLQPEDFATYYCQQSYSTPNTFGQGTKVEIK
Consider B14, for which the figures for the Kd in experiment [4] and in experiment [1] were 3350 pM and 392 pM, respectively.

B15: ADI-41247 (antibody, V domains shown)
VH: QVQLVQSGAEVKKPGASLQVSCKASGYTFTDSYFHWVRQAPGQGLEWMGRISPHSGGTNYAQKFQGRVTMTRDTSISTAYLELSRLRSDDTAVYYCATEGPRGPFRFDPWGQGTLVTVSS
VL: NFMLTQPHSVSESPGKTVTISCTRSSGSIASNYVQWYQQRPGSSPTTVIYEDNQRPSGVPDRFSGSIDSSSNSASLTISGLMTEDEADYYCQSYDSSNWVFGGGTKLTVL
On to B15, for which the Kd in experiment [4] came out at 2760 pM; in experiment [1], 1020 pM.

B16: ADI-41243 (antibody, V domains shown)
VH: QVQLVQSRAEVKKPGESLKISCKGSLHSFSNNWIGWVRQMPGKGLEWMGIIFPDDSDTRYSPSFQGQVTISADKSISTAYLQWSSLKASDTAIYYCGTVVTLIQGVADWGQGTLVTVSS
VL: QPVLTQPHSVSESPGKTVTISCTRSSGSIDSSYVQWYQQRPGSSPTTVIYEDNLRPSGVPDRFSGSIDSSSNSASLTISGLKTEDEAEYYCQSYDSSNPVVFGGGTKLTVL
With B16, the Kd amounted to 3550 pM in experiment [4] and 418 pM in experiment [1].

B17: ADI-41289 (antibody, V domains shown)
VH: EVQLVQSGAEVKKPGESLKISCKGSGYSFSSFWIGWVRQMPGKGLEWMGIIYPGDSDTRYSPSFQGQVTISADQSIRTAYLQWNSLKASDTGLYYCAKGGLGDVEMATIAVWGQGTLVTVSS
VL: QSVLIQPASVSGSPGQSITIPCTGTSSDVGSYNLVSWYQHHPGKAPKLIISEGSKRPLGVSNRFSGSKSGNTASLTISGLQAEDEADYYCSSYVRSRTFNYVFGTGTKLTVL
The molecule B17 gave a Kd in experiment [1] of 881 pM.

B18: ADI-41226 (antibody, V domains shown)
VH: EVQLVESGGGLVKPGGSLRLSCAASRFTFAGYYMSWIRQAPGKGLEWVSDISPSSTYTNYADSVKGRFTISRDNAGTSVSLQMDSLRADDTAVYYCARITPYGGSHYFDSWGQGTLVTVSS
VL: QPVLTQPPSVSGAPGQRVTISCTGSSSNIGAGYDLHWYQQLPGTAPKLLIYGNSNRPSGVPDRFSGSKSGTSASLAITGLQAEDEADYYCQSYDNSLSGFYVFGTGTKVTVL
For B18, the Kd in experiment [2] was determined as 820 pM. For the same molecule, the Neutralization IC50 (RSV subtype A) in experiment [3] came to 0.15 µg/mL.

B19: ADI-41227 (antibody, V domains shown)
VH: RSSWCSVGAEVKKRGSSVKVSCKASGGTFGGYAVSWVRQAPGQGLEWMGGIIPMFYTTKYAQKLQGRVTITADESTNTAYMDLSSLTSDDTAIYFCAREWHLGRTAVTGTGAFLDAFDIWGQGTMVTVSS
VL: SYELTQPPSVSEAPRQRVTISCSGSSSNIGNNAVNWYQQLPGKAPKLLIYYDDLLPSGVSDRFSGSKSGTSASLAISGLQSEDEADYYCSAWDDSLNGWVFGGGTKLTVL
On to B19, for which the Kd in experiment [2] was 4620 pM. This molecule returned a Neutralization IC50 (RSV subtype A) in experiment [3] of over 25 µg/mL.

These data come from patent publication US20260258115A1.
